Test results: US20170283470A1 (OXFORD NANOPORE TECHNOLOGIES, published 2017)

B1: CsgE (periplasmic accessory factor CsgE, his-tagged, CsgE-his) (other)
chain: VEVEVPGLLTDHTVSSIGHDFYRAFSDKWESDYTGNLTINERPSARWGSWITITVNQDVIFQTFLFPLKRDFEKTVVFALIQTEEALNRRQINQALLSTGDLAHDEF
notes: Added as purified monomeric CsgE; also called specificity factor CsgE; not shown: his tag (CsgE-his from pNH27)
B2: CsgG (wild-type E. coli CsgG, outer membrane localized, C-terminally StrepII-tagged, membrane-extracted nonameric pore) (other)
chain: CLTAPPKEAARPTLMPRAQSYKDLTHLPAPTGKIFVSVYNIQDETGQFKPYPASNFSTAVPQSATAMLVTALKDSRWFIPLERQGLQNLLNERKIIRAAQENGTVAINNRIPLQSLTAANIMVEGSIIGYESNVKSGGVGARYFGIGADTQYQLDQIAVNLRVVNVSTGEILSSVNTSKTILSYEVQAGVFRFIDYQRLLEGEVGYTSNEPVMLCLMSAIETGVIFLINDGIDRGLWDLQNKAERQNDILVKYRHMSVPPES
modifications: N-terminal Cys of the mature protein triacylated (lipidated), as described in paragraph 145
notes: Produced from pPG1 in E. coli BL21(DE3) and extracted from outer membranes with detergent; It was amphipol A8-35-solubilized for native PAGE and EM, and reconstituted in planar phospholipid bilayers for single-channel recordings; also called CsgG channel; CsgG pore; not shown: C-terminal StrepII tag of construct pPG1

Experiments:
[1] = target: B2; assay: SYPRO orange fluorescence of CsgE and CsgG bands on SDS-PAGE of the complex band cut from native PAGE
[2] = target: the molecule itself; assay: crystal structure, size-exclusion chromatography, EM and single-channel recordings

Row | Binder | CsgG/CsgE ratio (stoichiometry of the complex) [1] | binding result [2]
1 | B1 | 0.97 | –
2 | B2 | – | binds
